Data set [1] has as its target T1, GST-TARDBP (TDP-43) (human, UniProt Q13148 1-414). The data set is described as follows: EMSA. To be noted: protein: recombinant; tags: N-terminal GST (pGEX-4T-1); label: 3' biotin; single strand. (In general: Mobility shift assays separate free from complexed probe on a gel.)
Data set [2] has as its target T1, GST-TARDBP (TDP-43). In words: EMSA; dose dependent; supershifted by anti-TARDBP (Fig. 6d). To be noted: protein: recombinant; tags: N-terminal GST (pGEX-4T-1); label: 3' biotin; single strand.
For data set [3], the target named is T1, GST-TARDBP (TDP-43). The data set is described as follows: EMSA; 2 ug protein. To be noted: protein: recombinant; tags: N-terminal GST (pGEX-4T-1); label: 3' biotin; single strand.
Data set [4] concerns the target T1, GST-TARDBP (TDP-43). The data set is described as follows: competition; 0-200 fold unlabeled competitor. To be noted: protein: recombinant; tags: N-terminal GST (pGEX-4T-1); single strand.
The target of data set [5] is T1, GST-TARDBP (TDP-43). The data set is described as follows: EMSA; 2 ug protein; binding unaffected. To be noted: protein: recombinant; tags: N-terminal GST (pGEX-4T-1); label: 3' biotin; single strand.

T1 sequence (Q13148 whole entry): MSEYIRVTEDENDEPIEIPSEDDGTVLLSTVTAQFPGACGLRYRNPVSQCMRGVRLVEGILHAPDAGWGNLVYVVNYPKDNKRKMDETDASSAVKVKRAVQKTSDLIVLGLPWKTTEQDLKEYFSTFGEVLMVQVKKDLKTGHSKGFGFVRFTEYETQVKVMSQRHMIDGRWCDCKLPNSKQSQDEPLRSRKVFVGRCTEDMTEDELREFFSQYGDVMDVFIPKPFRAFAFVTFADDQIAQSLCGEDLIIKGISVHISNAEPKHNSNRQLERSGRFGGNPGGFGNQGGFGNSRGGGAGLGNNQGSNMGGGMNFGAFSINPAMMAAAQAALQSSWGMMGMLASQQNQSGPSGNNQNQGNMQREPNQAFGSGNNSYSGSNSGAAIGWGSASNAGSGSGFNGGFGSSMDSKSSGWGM

B1: fragment s3 (ssDNA)
DNA: CAGAGGTGAAAAAGTTGCATGGTG
For the molecule B1, in the data set with GST-TARDBP (TDP-43) [1], the binding result is “no binding”.

B2: fragment s4 (ssDNA)
DNA: AAAGTTGCATGGTGCTGGTGAACA
For the molecule B2, the binding result with GST-TARDBP (TDP-43) [1] is recorded as “no binding”.

B3: AS probe 1 (WT, nt1804-1849) (ssDNA)
DNA: ATGAGATGATTAGGCAGAGGTGAAAAAGTTGCATGGTGCTGGTGAA
B3: the binding result with GST-TARDBP (TDP-43) [2] is reported as “binds”.

B4: AS Mutant 2 (ssDNA)
DNA: ATGAGATGATTAAGCATAGGCGAAAAAGTTGCATGGTGCTGGTGAA
Regarding B4, in the data set with GST-TARDBP (TDP-43) [3], the binding result was “no binding”.

B5: AS probe 1 unlabeled competitor (ssDNA)
DNA: ATGAGATGATTAGGCAGAGGTGAAAAAGTTGCATGGTGCTGGTGAA
Regarding B5, in the data set with GST-TARDBP (TDP-43) [4], the binding result was “binds”.

B6: AS Mutant 3 (central A5 repeat mutated) (ssDNA)
DNA: ATGAGATGATTAGGCAGAGGTGCTAGCGTTGCATGGTGCTGGTGAA
In the case of B6, in the data set with GST-TARDBP (TDP-43) [5], the binding result is given as “binds”.

B7: AS Mutant 5 (ssDNA)
DNA: ATGAGATGATTAGGCAGAGGTGAAAAAGTTGCATAGTACTCGTGAA
Regarding B7, the binding result with GST-TARDBP (TDP-43) [3] is listed as “no binding”.

B8: AS Mutant 1 (ssDNA)
DNA: ATCAGACGACTAGGCAGAGGTGAAAAAGTTGCATGGTGCTGGTGAA
Take B8: the binding result with GST-TARDBP (TDP-43) [3] is given as “no binding”.

B9: AS Mutant 4 (ssDNA)
DNA: ATGAGATGATTAGGCAGAGGTGAAAAAGCTACATAGTACTGGTGAA
Regarding B9, the binding result in the data set with GST-TARDBP (TDP-43) [3] is “no binding”.

B10: fragment s2 (ssDNA)
DNA: GGTGAAAAAGTTGCATGGTGCTGGTGAA
For B10, the binding result with GST-TARDBP (TDP-43) [1] is “no binding”.

B11: AS probe 2 (adjacent) (ssDNA)
DNA: CTGGTGAACAGACCAATTTATGCCTACAGCCTCCTAGTACAAAGAC
Turning to B11, the binding result with GST-TARDBP (TDP-43) [3] is given as “no binding”.

B12: fragment s1 (ssDNA)
DNA: ATGAACATGAGATGATTAGGCAGAGGTG
Consider B12, for which the binding result with GST-TARDBP (TDP-43) [1] is on record as “no binding”.

The values above are taken from publication PMC6560085.
